Test results taken from PMC4077652, “An Unstable Th Epitope of P. falciparum Fosters Central Memory T Cells and Anti-CS Antibody Responses” (PLoS ONE, 2014).

B1: unnamed (parent)
chain 1: QNSLSTEWSPCSVT
chain 2: not shown
chain 3: not shown

Variants of: B1
Test: binding inhibition (competition) assay with biotin-labeled HA 306-318
Details: peptides tested at 0 to 100 µM, read off a plot

Variant | IC50
chain 1 P10A | 7800 nM
chain 1 T14A | 800 nM
chain 1 S3A | 1100 nM
chain 1 S5A | 950 nM
chain 1 Q1A | 1200 nM
chain 1 E7A | 3500 nM
chain 1 C11A | 800 nM
chain 1 W8A | 1500 nM
chain 1 N2A | 2700 nM
chain 1 S12A | 800 nM
chain 1 T6A | 1300 nM
chain 1 V13A | 500 nM
